The text below walks through data of patent publication US20250188153A1.

Holding throughout (assay): ELISA on coated recombinant protein, OD 405 nm
Experiment [1] has as its target hMPV A1 F trimer (heated) (human metapneumovirus).
Experiment [2] concerns the target hMPV A1 F (human metapneumovirus).
Experiment [3] deals with hMPV B2 F monomer (human metapneumovirus).
The target in experiment [4] is hMPV B1 F (human metapneumovirus).
Experiment [5] deals with hMPV A2 F (human metapneumovirus).
Experiment [6] concerns the target hMPV B2 F protein (his-tagged, not trypsin treated) (human metapneumovirus).
Experiment [7] deals with hMPV B2 F trimer (heated) (human metapneumovirus).
The target of experiment [8] is hMPV A1 F monomer (human metapneumovirus).
Experiment [9] deals with hMPV B2 F GCN4 (human metapneumovirus).

B1: MPV467 (antibody, V domains shown)
VH: EVQLVESGGGVVRPGTSLRVSCAAFDFNFRDYGMHWVRQAPGKGLEWVAGIWYDGSNKDYADSVKGRFTISRDNSQNTLYLQMNSLRVEDTAVYYCARDPRTHREGALSHFDSWGQGTLVTVSS
VL: PNELTQDPAVSVALGQTVRITCQGDSLRNYFAGWYQQKPGQAPLLVLYGENIRPSGIPDRFSGSSSGNTVSLTITGAQAEDEADYYCNSRDNSGNHWVFGGGTRLTVL
Broadly, the EC50 is the concentration that produces a half-maximal response. In the case of B1, the EC50 worked out at 0.26 µg/mL in experiment [1]; 0.38 µg/mL in [2]; 0.06 µg/mL in [3]; 0.12 µg/mL in experiment [4]; 0.12 µg/mL in [5]; 0.37 µg/mL in experiment [6]. The results for the EC50 in [7], in [8] and in experiment [9] were 0.65 µg/mL, 0.053 µg/mL and 0.061 µg/mL, respectively.

B2: MPV489 (antibody, V domains shown)
VH: EVQLLESGGGLVQPGGSLRLSCAASKFTFNNYEMNWLRQAPGKGLEWVSSISSSGDTIHNADSVKGRFIISRDNAKNSLHLQMNGLRAEDTAVYYCARAGSGWAYDAFDIWGLGTMVTVSS
VL: LSASVGDRVTITCRASQSISSFLNWYQQKPGKAPKLLMYAASSLPVGVPSRFSGSGSGPEYTLTISNLQPEDFATYYCQQGYSSPPTFGGGTRLEVK
Consider B2, for which the EC50 amounted to 4.5 µg/mL in experiment [1]; 5 µg/mL in experiment [2]; 1.3 µg/mL in experiment [3]; 9.3 µg/mL in experiment [5]; 4.2 µg/mL in experiment [6]; 18 µg/mL in [7]. Further, the EC50 is 7 µg/mL in experiment [8] and 2.3 µg/mL in [9].

B3: MPV481 (antibody, V domains shown)
VH: EVQLVQSGGGLVKPGGSLRLSCAASGLPFNNAWMNWVRQAPGKGLEWVGRIKSKIDGGTTEYAAPVKGRFTISRDDSENTLYLQMNSLRTEDTAVYYCTTEYYALLSGNYSDCWGQGTLVTVSS
VL: DIVMTQSPFSLSLSPGERATLSCRASQSIKRAYLGWYQQKPGQAPRLLIYGASNRATGIPDRFSGSGSGTDFTLTISRLEPEDFAVYYCQQYGDSPGGSFGQGTKLEIR
As to B3, the EC50 in experiment [1] is 0.28 µg/mL; in experiment [2] it was 0.31 µg/mL; in experiment [3], 0.2 µg/mL; in experiment [5] it was 0.11 µg/mL; in experiment [6], 0.16 µg/mL; in experiment [7], 0.31 µg/mL. Besides, the EC50 in [8] amounted to 0.17 µg/mL; in experiment [9], 0.11 µg/mL.

B4: MPV491 (antibody, V domains shown)
VH: QVQLQESGPGLVKSSQTLSLTCTVSGGSISSVTSHWTWIRQHPGKGLEWIGYIFSSGTTYYSPSLRSRLTMSVDTSKNQFSLQLSSVTAADTAMYYCARGIYCGDSCYKGTDYWGRGTLVTVSS
VL: IRLMTQTPVTLPVTPGEPASISCRSSQSLLHSNGYNYLDWYLQKPGQSPQLLIYRGSTRASGVPDRFSGSGSGTEFTLKISRVEAEDVGVYYCMQGLQTPYTFGQGTKLESR
With B4, the EC50 in experiment [1] stood at 1.1 µg/mL; in experiment [2] it was 1.5 µg/mL; in experiment [3], 0.48 µg/mL; in experiment [4], 2 µg/mL; in experiment [5], 2.2 µg/mL; in experiment [6], 2.1 µg/mL. For the same molecule, the EC50 in experiment [7] amounted to 1.7 µg/mL; in [8] it was 1.3 µg/mL; in experiment [9] it was 0.5 µg/mL.

B5: MPV414 (antibody, V domains shown)
VH: QVQLVQSGPEVKKPGSSVMVSCKTSGGNFNNFAISWVRQAPGQGLEWMGGIVPIFGTANYAQKSQDRVTITADPSSSTAYLQLSSLTSDDTAIYYCARDLGRSSNYYYYSVFESWGQGTLVTVSS
VL: DIVMTQSPATLSLSPGERATLSCRASQSVGDKLAWYQQKPGQAPRLLIYGASTRATDIPARFSGSGSGTEFTLTVSSLQPEDFAVYYCQQYENWPPITFGQGTRLEIK
Consider B5, for which the EC50 in [2] is 0.15 µg/mL; in experiment [3], 0.19 µg/mL; in experiment [4], 0.034 µg/mL; in experiment [5], 0.034 µg/mL; in experiment [6], 1.8 µg/mL; in experiment [8] it was 0.074 µg/mL. Besides, in experiment [9], the EC50 is 0.061 µg/mL.

B6: MPV488 (antibody, V domains shown)
VH: EVQLVQSGFEVKKPGASVKVSCKASGYNFNNYGISWVRQAPGQGLEWMGWISAYTGNTNEAQKFQGRVSMTTDTSTSTAYMEVRSLRSDDTAVYYCARDIGSSMFYSYFYGMDVWGQGTTVIVSS
VL: SLSVSLGERATINCKSSESVLYNSNNENYLDWYQQKPGQPPKLLIYWASTRASGVPDRFSGSASGTDFTLTISSLQAEDVAVYYCQQYYSTPRTFGQGTKVEIK
With B6, the figures for the EC50 in [3] and in experiment [9] were 0.063 µg/mL and 0.073 µg/mL, respectively.

B7: MPV487 (antibody, V domains shown)
VH: EVQLLESGGGLVQPGRSLRLSCTASGFTFDDYAMHWVRQLPGKGLEWVSGISWNSDNIGYADSVKGRFTISRDNGKNSLYLQMNSLRAEDTAFYYCAKDVRIDYDLLIGHIDYWGPGTLVTVSS
VL: TQSPVTLSLSPGERATLSCRASQSFGGYCAWYQQKPGQSPRLLIYDASNRATGVPARFSGSGSGTDFTLTISSLEPEDSAVYFCQQRGNWPIFGQGTRLEI
On to B7, for which the EC50 in experiment [2] stood at 0.11 µg/mL; in experiment [3], 0.099 µg/mL; in [4] it was 0.065 µg/mL; in [5], 0.1 µg/mL; in [6], 0.37 µg/mL; in experiment [7], 0.54 µg/mL. For the same molecule, the EC50 in experiment [8] worked out at 0.13 µg/mL; in [9] it was 0.071 µg/mL.

B8: MPV86 (antibody, V domains shown)
VH: QVQLVQSGAEVKKPGSSVKVSCKASGDTFNDVALSWVRQAPGQGLEWLGGIIPFFGTANYAQRFQDRVTITADASTSTAYLELGGLRSEDTAVYYCARGWSCRNITCFMMGYYFYIMDVWGQGTLVTVSS
VL: LSLSPGERATLSCRASQSVGNFLAWYQQKPGQTPRLLIQDASNRATGIPARFSGTGSGTDFTLTISSLEPEDFAVYYCQQRSNWPPTFGPGTKVDIK
B8: the half-maximal effective concentration (EC50) was 0.3 µg/mL in experiment [2]; 0.21 µg/mL in experiment [3]; 0.073 µg/mL in [4]; 0.083 µg/mL in [5]; 5.7 µg/mL in experiment [6]; 0.18 µg/mL in experiment [8]. The EC50 in experiment [9] came out at 0.12 µg/mL.

B9: MPV482 (antibody, V domains shown)
VH: EVQLVQSGGGVVQPGRSLRLSCAASGFTFSSFAMHWVRQAPGKGLEWVALISDDGNNKYHADSVKGRFTISRDSSKNTLYLQMNSLRGEDTAVYYCARDGSVVGAAAHCDHWGQGTLVTVSS
VL: SYELTQPPSVSVSPGQTARITCSGDALPNQCAYWYQQKPGLAPVLLIYKDKERPSGIPERFSGSISGTTVTLTISGVQAEDEADYYCQSSDSSSTVVFGGGTKLTVL
Take B9: the EC50 in experiment [1] was found to be 0.35 µg/mL; in experiment [2] it was 0.13 µg/mL; in experiment [3] it was 0.2 µg/mL; in [4] it was 0.072 µg/mL; in experiment [5], 0.057 µg/mL; in experiment [6] it was 0.33 µg/mL. Moreover, the EC50 in experiment [8] was 0.29 µg/mL; in experiment [9], 0.092 µg/mL.

B10: MPV456 (antibody, V domains shown)
VH: QVQLQESGPGVVKPSGTLSLTCGVSGGSISSSYWWSWVRQPPGKGLEWIGEIYHSGSTNYNPSLKRRVTISVDKSKNQFSLKVTSVTAADTAVYYCARGPIQYYDILTEERVGYCDYWGQGTLVTVSS
VL: TLSASVGDRVTITCRASQSISSWLAWFQQKPGKAPKLLIYKTSSLESGVPSRFSGSGSGTEFTLTISSLQPDDFATYYCQEYNSYSRTFGQGTKVEIK
Turning to B10, the EC50 was determined as 1.8 µg/mL in [1]; 1.4 µg/mL in experiment [2]; 0.49 µg/mL in experiment [4]; 0.42 µg/mL in experiment [5]; 0.61 µg/mL in experiment [6]; 1.8 µg/mL in experiment [7]. The EC50 in experiment [8] stood at 3.5 µg/mL; in experiment [9], 0.69 µg/mL.
